Test results as given in patent US8951750B2 (BASF SE, priority 2007, dated 2015).
Read-outs that look alike come from different tables or passages of the source.

Experiments:
[1] = tested on: AMDase from Mesorhizobium sp. BNC1; test: BTB activity assay, alkenyl-substituted substrates of formula I; assay type: biochemical; conditions: 30° C.
Experimental: (§1) This method involves measuring spectrophotometrically at 620 nm the change of yellow colour to green/blue of pH indicator—BTB with increasing concentration of [OH^−] formed during the decarboxylation reaction. […] More concentrated buffer (10 mM) gives better results with higher concentration of enzyme or quicker reactions since changes of colour are slower due to higher buffer capacity.
(§2) All kinetics assays were performed on an Anthos Zenyth 3100 96-well microplate reader. 10 μl of 20-500 mM phenylmalonate or methyl-phenylmalonate solution (pH adjusted to 7.2) was added to 180 μl of 5-10 mM MOPS buffer pH 7.2 containing 0.0186 mM bromothymol blue. The reaction was initiated by addition of 10 μl of decarboxylase solution (0.002-0.02 mM, final concentration). The sensitivity of the reaction depends on the concentration of buffer, lower concentrations give higher sensitivity. The values of KM and kcat were calculated from spectophotometrical measurements at 620 nm of the resulting blue solution using Lineweaver-Burk plot and the following equations: […]
A BTB activity assay was performed as described above. Compounds of formula I, wherein R^2 is methyl and R^1 is phenyl, ethenyl, propen-1-yl, buten-1-yl or 2-methylpropen-1-yl were tested as substrates.

[2] = tested on: C=CC(C)(C(=O)O)C(=O)O; test: purified protein, by the assay type; conditions: other: 30° C., BTB assay, pH 7.2
Experimental: (§3) All kinetics assays were performed on an Anthos Zenyth 3100 96-well microplate reader. […] The reaction was initiated by addition of 10 μl of decarboxylase solution (0.002-0.02 mM, final concentration). The sensitivity of the reaction depends on the concentration of buffer, lower concentrations give higher sensitivity. The values of KM and kcat were calculated from spectophotometrical measurements at 620 nm of the resulting blue solution using Lineweaver-Burk plot and the following equations:

[3] = tested on: CC/C=C/C(C)(C(=O)O)C(=O)O; test: purified protein, by the assay type; conditions: other: 30° C., BTB assay, pH 7.2
Experimental: as §3

[4] = tested on: C/C=C/C(C)(C(=O)O)C(=O)O; test: purified protein, by the assay type; conditions: other: 30° C., BTB assay, pH 7.2
Experimental: as §3

[5] = tested on: CC(C)=CC(C)(C(=O)O)C(=O)O; test: purified protein, by the assay type; conditions: other: 30° C., BTB assay, pH 7.2
Experimental: as §3

[6] = BTB spectrophotometric assay of kinetic constants, substrate phenylmalonate; assay type: biochemical; conditions: for Km / kcat: substrate 2-phenylmalonic acid (1), His6-tagged enzyme, BTB method; for decarboxylase activity in words: substrate phenylmalonate 1, purified enzymes
Experimental: as §1, §2

[7] = BTB spectrophotometric assay of kinetic constants, substrate 2-methyl-2-phenylmalonate; assay type: biochemical; conditions: for reaction with 2-methyl-2-phenylmalonic acid (2) (cell spans Km, kcat, kcat/Km) / Km / kcat: substrate 2-methyl-2-phenylmalonic acid (2), BTB method; for Km / kcat: His6-tagged enzyme
Experimental: as §1, §2

[8] = In vivo plate assay for AMDase activity (BTB), substrate phenylmalonate; assay type: cell-based; conditions: E. coli expressing the enzyme
Experimental: Test Petri dishes were prepared using following medium: 1% tryptone, 0.5% yeast extract, 1% sodium chloride, 1% agar, 0.025% bromothymol blue (BTB). Then pH was adjusted to 6.5 and the medium autoclaved. When medium temperature reached 50-60° C. isopropyl-β-D-thiogalactopyranoside (1 mM, final concentration), kanamycin ([…], final concentration) and phenylmalonic acid (0.36%, final concentration) were added. 100 μl of liquid bacterial culture containing AMDase was plated on test Petri dishes. After 2-3 days of incubation at 37° C. the colonies and surrounding area changed colour to green-blue indicating AMDase activity.

[9] = In vitro decarboxylation of 2-methyl-2-phenylmalonate to 2-phenylpropanoic acid; assay type: biochemical; conditions: for absolute configuration of the product: 2-phenylpropionate product
Experimental: [formula] [formula] [formula] h) In Vitro Decarboxylation of 2-methyl-2-phenylmalonate to 2-phenylpropanoic Acid by AMDase from Bordetella bronchiseptica and Asp/Glu Racemase from Mesorhizobium sp. BNC1.
To 400 μl of 0.1 M TRIS buffer pH 8, 100 μl of 0.5 M water solution (after adjusting pH to 8) of 2-methyl-2-phenylmalonic acid was added. Then 20 μl of an AMDase solution (10 mg/mL) was added and the reaction was stirred at 30° C. for 8 h. Products were extracted with diethyl ether after acidifying with 1 M HCl and methylated with TMS-diazomethane. The reaction was analyzed by GC (conversion up to 95%) and 2-phenylpropanoic acid formation confirmed by GC-MS, ^1H NMR. Both enzyme products (after methylation) had the same configuration (the same peak on GC with chiral column, ee>99%). Thus according to the literature^7 absolute configuration of the product was R.

[10] = substrate 2-phenylmalonic acid (1); literature data (footnote a, ref 6); cited from earlier work
[11] = substrate 2-methyl-2-phenylmalonic acid (2); literature data (footnote a, ref 6); cited from earlier work

C=CC(C)(C(=O)O)C(=O)O [compound 3, 2-methyl-2-vinylmalonic acid]
Km [1]: 19.4 mM
kcat [1]: 8.9 s⁻¹

AMDase from Bordetella bronchiseptica KU1201 (Bordetella bronchiseptica)
Km [2]: 7.8 mM
kcat [2]: 42.8 s⁻¹
kcat/Km [2]: 5500 M⁻¹ s⁻¹
Km [3]: 14.4 mM
kcat [3]: 23.9 s⁻¹
kcat/Km [3]: 1600 M⁻¹ s⁻¹
Km [4]: 12.8 mM
kcat [4]: 46.2 s⁻¹
kcat/Km [4]: 3600 M⁻¹ s⁻¹
Km [5]: 3.5 mM
kcat [5]: 5.2 s⁻¹
kcat/Km [5]: 1500 M⁻¹ s⁻¹

B1: protein NP_888076.1 from Bordetella bronchiseptica RB50: Putative decarboxylase [Bordetella bronchiseptica RB50], SEQ ID NO: 8 (protein, listed as Bordetella bronchiseptica)
chain: MPTPTQMKTTARYRPYAWRAKVGLIVPSTNTINEPEFYRLAPDGVTIHTGRAINAGPATQENYDRMARGVLEAADLIKTAEVDVVAYGCTSGSIVCSLDELCDGMSERVGVPAIATAGAVVAALRALGVRRVAVGTPYIDFVNQREREFLEQYGFEVVSIEGMDLGHTQEERRDIGRVPPQSTFQLARDIDRPQAEAIFLSCTNLATLDMIERIENELGKPVVTSNQATFWACLRLLGLSCAIPGYGRLLTDCLAPITRASYALALEHHHHHH
Km [6]: 10 mM
kcat [6]: 12.4 s⁻¹
decarboxylase activity in words [6]: moderate activity
reaction with 2-methyl-2-phenylmalonic acid (2) (cell spans Km, kcat, kcat/Km) [7]: No reaction

B2: protein ZP_00801202.1 from Alkaliphilus metalliredigenes QYMF: Asp/Glu racemase [Alkaliphilus metalliredigenes QYMF], SEQ ID NO: 10 (protein)
chain: MSDFSYGGRAKIGLIYPAPGWVMEPEFYLMAPWGVSTYTTRISLKHVNVAELRKLGDQSVEAAELLAQAPLDVIALGCTSGSFVNGSRYDQELIEKMEGVSGGIPCTTTSTAVVAALKALHVTKIAVATPYIDEVNLKAKNFLEAEGLDVVNIKGLGLLQDIEIDRQDMETVYRLAKEVDHVEAQAIVILCTGLRSVPIIEALENDLGKPVISAIQATFWHCLRLSGVRENVEGYGSLLRIEGLLEHHHHHH
modifications: Alkaliphilus metalliredigenes
kcat [6]: 0.26 s⁻¹
decarboxylase activity in words [6]: very low levels of activity
colour change of BTB indicator (decarboxylase activity) [8]: only slow development of colour
reaction with 2-methyl-2-phenylmalonic acid (2) (cell spans Km, kcat, kcat/Km) [7]: No reaction

B3: protein EAN08019.1 from Mesorhizobium sp. BNC1: Asp/Glu racemase [Mesorhizobium sp. BNC1], SEQ ID NO: 4, shown to have AMDase activity (protein, listed as Mesorhizobium sp.)
chain: MSAEDPVIGLIVPPAAGLVPPEAVAMYPEVTFHASGLGLKEMTPCGYAGVIDLVGDHAERHAQAGAQAVALMGTSLSFFRGAAFNAELITHMSNRSGLPATTMSQAVVDELKSHGARRIAVVTAYRQDVNNLLAAFLNEHGIEARSLKSLGITSVADVAGTPAKRLLQLCKEAVHDAGPVDAVLISCGGLHTLDVIVDVEISTGLPVVTSATAGVRGAVGLLKRSAETAEHATSKFLTGRALEHHHHHH
Km [6]: 9.6 mM
kcat [6]: 118 s⁻¹
decarboxylase activity in words [6]: very efficient decarboxylase activity
decarboxylase activity in words ([7]; substrate 2-methyl-2-phenylmalonate 2, purified enzymes): very efficient decarboxylase activity
Km [7]: 22.2 mM
kcat [7]: 55.8 s⁻¹
absolute configuration of the product [9]: R-configuration
ee of 2-phenylpropanoic acid product ([9]; GC with chiral column after methylation): > 99%

B4: AMDase from Bordetella bronchiseptica: arylmalonate decarboxylase from Bordetella bronchiseptica, SEQ ID NO: 2, Blast entry BAA02419.1 (protein, listed as Bordetella bronchiseptica)
chain: MQQASTPTIGMIVPPAAGLVPADGARLYPDLPFIASGLGLGSVTPEGYDAVIESVVDHARRLQKQGAAVVSLMGTSLSFYRGAAFNAALTVAMREATGLPCTTMSTAVLNGLRALGVRRVALATAYIDDVNERLAAFLAEESLVPTGCRSLGITGVEAMARVDTATLVDLCVRAFEAAPDSDGILLSCGGLLTLDAIPEVERRLGVPVVSSSPAGFWDAVRLAGGGAKARPGYGRLFDESLEHHHHHH
Km [10]: 13.9 mM
kcat [10]: (353)^a ^ s^−1
Km [6]: 10.7 mM
kcat [6]: 316.1 s⁻¹
colour change of BTB indicator (decarboxylase activity) [8]: clear change in colour from yellow to blue
Km [11]: 25.5 mM
kcat [11]: (29.8)^a s^−1
Km [7]: 26.9 mM
kcat [7]: 278.9 s⁻¹
absolute configuration of the product [9]: R-configuration

B5: protein BAA30082.1 from Pyrococcus horikoshii OT3: Hypothetical arylmalonate decarboxylase [Pyrococcus horikoshii OT3], SEQ ID NO: 6 (protein, listed as Pyrococcus horikoshii)
chain: MYGWRRRIGLIVPSSNTTMEPEFWKMAPEGVSIHTARMRLREVTEESLLEMERHAKDAALELADAEVDVIVYGCTSGSLIKGKGYDKEIAKNLEEASGIKTITTSTAVLNALNTLDIQKVVVATPYIDSVNEREKEFLEANGIEVLRIKGLGIVKNTEIGRQEPWVAYKLALEVYTPEADGLFISCTNFRTIEIIDKLEVELGVPVVTSNQATMWYALKTMKVKEKYDMYGTLLKEKLLEHHHHHH
Km [6]: 41.7 mM
kcat [6]: 0.09 s⁻¹
decarboxylase activity in words [6]: very low levels of activity
colour change of BTB indicator (decarboxylase activity) [8]: only slow development of colour
reaction with 2-methyl-2-phenylmalonic acid (2) (cell spans Km, kcat, kcat/Km) [7]: No reaction
